Source: patent US6084068
Read-outs that look alike come from different tables or passages of the source.

Legend:
RNA Polymerase II (rat) [1] = biological target: RNA Polymerase II (rat)
RNA Polymerase II (rat) [2] = biological target: RNA Polymerase II (rat); remark: listed apart in the source

runoff transcription from the AdML promoter by RNA Polymerase II (RNA Polymerase II (rat) [1])	runoff transcription from the AdML promoter by RNA Polymerase II (RNA Polymerase II (rat) [2])	Substance
> 50%	–	Elongin A deletion mutant 1-730
–	50%	Elongin A deletion mutant 1-680
